Experimental data: the supplement of paper PMC9170038

System: K4 kissing-loop RNA reporter
Assay: apparent KD of K4 kissing-loop reporter; higher = weaker reporter binding
Details: Eterna round: R107; input ligand: none
Description: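 RNA-MaP round R107: designed RNA switches with theophylline, tryptophan, arginine or FMN aptamers are transcribed on-chip within common flanks. They are titrated with a labelled K4 kissing-loop RNA reporter in RNA-MaP buffer (100 mM Tris pH 7.5, 80 mM KCl, 4 mM MgCl2), without ligand or with the indicated ligand. Median apparent KD per design.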
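Further: bound reporter read as fluorescence of individual clusters on recovered sequencing chips by microscopy, with normalized cluster intensities fitted with a binding model.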

In order of falling “apparent KD of K4 kissing-loop reporter” value:
1. UGAUACCAGACGGCCGCCACUUCUGCAAGUCAAAGACUUGCCAAGGGAAUCGUCCAGUGAUGUUGGAGGACCGGGUCUGGUAUCU [FiskerMod 3 - Jieux - Exclusion - Tryptophan B]  817 nM
2. GUUUGGCGGGCGGCCGCCACUCGGACGAGUCGCAGUGAUGUUGUGGUUUGCCAGUCGUCUUCAUCGAGGACCGGGUUUGUCGGGC [Exclusion Tryptophan B GF 19]  600 nM
3. UUACGCGGCAUAGAUACCAGCAAUGCAGGAUAGGUCAAGAGUGAUGUUCUGAUACUUGGGUGCCCUUGGCAGCUAGACGAUAACA [theeternabot_sameState_KL_Theo_B_46]  521 nM
4. UUGUGCAGCAAUCGAGUGAUGUUCGACGAUACCAGCCUCGAUAGAGGCCCUUGGCAGCGUAUCAUCACAUGCCAAGAGCUGCACU [#SwitchBubble 5]  428 nM
5. CGAGUGAUGUUCGAAGAGUUGUUGAGCGAUACCAGCCAGGAAACUGGCCCUUGGCAGCGUAAUAAAUAAAUAAAUAAAUGAUCAC [whbob_Ex_Theo_A_th61]  410 nM
6. GGAUUGCGUUCGGCCGCCACUAGACUACAUUCCACGCCCGACCCGUUUUUAAGUGAUGUUUAAACUAGGACCGGGAACCGAUUUC [theeternabot_exclusion_KL_Trp_B_33]  395 nM
7. CCGAAGAACCAGUGAUGUUGGUUGACUAGACAGGAUAUGAGCAACAUCAGAAGGGUCUGGCUUCGGGAGAGAGUCGCGCUGACCU [Anditebier]  388 nM
8. AGACGCCAGUCGGCCGCCACUCACAGCAGUGAUGUUGCUGAGAAUCUAGAAGAGUGAUGUUCUUAGAGGACCGGGACUCCAGUCG [Same State Tryptophan B GF 7]  383 nM
9. CAGCAGAGUGAUGUUCUGCUUACUGCGGAUACCAGCUUUGCCAGAGGCCCUUGGCAGCCGCACGGCUCAGUGAUGUUGGGUCACG [Same State Theophylline A GF 13]  361 nM
10. AAAUAAAACUAUGAUACCAGUCAUCACAGAGUGAUGUUUUGUGGCAUUUUAAACUUGGCAGACCCUUGGCAGCAUGAUAUAGGAG [theeternabot_sameState_KL_Theo_B_8]  318 nM
11. UGAUACCAGGCGGCCGCCACUCCCGCAGGUCAAAGACCUGCGAAGCUGGUUCUUCAGUGAUGUUGGAGGACCGGGCCUGGUAUCU [FiskerMod 25 - Jieux - Exclusion - Tryptophan B]  236 nM
12. GAGCGGUGGAGGUUACCGCUAUUCUGAGAAGGAGCGCAGAUGACUGCAGGUAGGUCGCUUAGAGCUUGCAGUGAUGUUGCAAGUU [Edrirama]  213 nM
13. UAUUGUACAGGGAAAUUGAUAAUAGACUUACGAGGACCGGUACGGCCGCCACUCGAUAGUCGAGUGAUGUUCGAAUGCUAUUGAU [Attempt 1]  211 nM
14. AAUAAGGUCGCCGAUACCAGCGCAGGCAGAGCAAAGCUCUGCCAAGUAGUGAUGUUACUGCGCCCUUGGCAGCGGUGGCACGACC [Omei KL Theo B SS C v3]  163 nM
15. GACUCAUGUAGAAGGAGCGUCAGAAGCUACAGACAUGAGUGAUGUUCAUGUUAGUUGAUCUGACAGGUAGGUCGCUACAGCAGGA [KL-SSArg B14 #analogue]  149 nM
16. AAUAAACAGUCGGCCGCCACUUCAAUAGACUUAUUAUUGAAUGGUGUAGUUCUUCAGUGAUGUUGAAGGACCGGGACUUUCGCGC [Isesator]  145 nM
17. AUGGUAUUGCGAGGAUAUCCUUCAAAUGUGACACUAACGGCAGUGAUGUUGCCGGCGUCUUUUUGAGGAGAAGGCGCGGUGUUAU [Exclusion FMN B GF 24]  129 nM
18. UGAUAGGACAGAAGGAGCGGAAGCUAGUCAAAGACUAGCAAACGUUAAACAGGAGUGAUGUUCCAGGUAGGUCGCUGUCCUAUCU [ArgBX 23 #SwitchBubble #StaticStem]  126 nM
19. UUUAUAUAGUCGGCCGCCACUGAUUUUUAUAUAUGUUUAUGUUUAUACGAGUGAUGUUCGUUAUUCAGGACCGGGACUUUUGUUA [JR_SSTryptoB_Sub016]  109 nM
20. GCGAUCUGCAUCGAUACCAGCCCAGUGAUGUUGGGCUGCUCUCCAUGGGUGCCAGACACGGGCCCUUGGCAGCGAGGUAGAGCCC [Maonzaa]  109 nM
21. CGAAGAAAGGUAUGUGGGAUCUGCGCGUAACGAGGACCGGUACGGCCGCCACUCGACGUCGCAUACGGCCCAGUGAUGUUGGGUG [theeternabot_sameState_KL_Trp_A_14]  75.4 nM
22. GUUACUUCAGAAGGAUAUUAGUAAACAACACGGUAGUGAUGUUACCGUUAUCAAGCCCGGCUUCACUAAGAAGGUCUCCACCGCG [theeternabot_sameState_KL_FMN_B_23]  52.9 nM

Same assay, conditions: Eterna round: R107; input ligand: theophylline 20 uM

In order of rising “apparent KD of K4 kissing-loop reporter” value:
1. GUGCGCGCGGCGGCCGCCACUCGCAUGAGAGUGAUGUUCUUGCCCGGGCCGCAAGGCCCGGGUGUGAGGACCGGGCCGGGCUGCG [#2 Same State - Tryptophan B Attempt #26 (HarryS)]  0.148 nM
2. UAUCGAGUGAUGUUCGAUGUAGUUCAUUCAGAGGAUAUAGGAUGGGCUAGAAGGCUGAAAAGUGCUUCGAGUGAUGUUCGAAGAU [Exclusion FMN A GF 6]  40.9 nM
3. GUUACUUCAGAAGGAUAUUAGUAAACAACACGGUAGUGAUGUUACCGUUAUCAAGCCCGGCUUCACUAAGAAGGUCUCCACCGCG [theeternabot_sameState_KL_FMN_B_23]  70 nM
4. CGAAGAAAGGUAUGUGGGAUCUGCGCGUAACGAGGACCGGUACGGCCGCCACUCGACGUCGCAUACGGCCCAGUGAUGUUGGGUG [theeternabot_sameState_KL_Trp_A_14]  74.9 nM
5. UGACUGGACUGAAGGAGCGUUGAAGGAGCGUAGUGAGUGAUGUUCACUACAGGUAGGUCGCAGCAGGUAGGUCGCAGUCUAGUCU [ArgBS 25 #DoubleAptamer #SwitchBubble]  83 nM
6. AAUGUACAAGUGAUGUUUGUACUUUCCGAAGGAGCGUCUAAUAAGACAGGUAGGUCGCGGAUUAUCAUAAUUAUCAGGUUUUCAA [JR_SSArginiA_Sub015]  89.1 nM
7. AAUAUAUAGUGAAGGAGCGCGAUAAGCAGUGAUGUUGCUUUGUUAUGAUUGUCUAUUUUUACGCAGGUAGGUCGCACUAUAUAUA [JR_ExcArginiB_Sub020]  109 nM
8. UUUAUAUAGUCGGCCGCCACUGAUUUUUAUAUAUGUUUAUGUUUAUACGAGUGAUGUUCGUUAUUCAGGACCGGGACUUUUGUUA [JR_SSTryptoB_Sub016]  117 nM
9. UUUUUUAAUGGAAGGAGCGCGUGGGCGCAGUGAUGUUGCGCCCGACAUCACUUCAACUUAACGCAGGUAGGUCGCCAUUAUUUUU [Arginine B (Excl) V6]  119 nM
10. CCGACUGCAGGAAGGAGCGGCGGUUGGAGUGAUGUUCCGGGUAGUGAUGUUACCAAGAUCCGCCAGGUAGGUCGCCUGUUGCUCG [Same State Arginine B GF11]  122 nM
11. AAUAAGGUCGCCGAUACCAGCGCAGGCAGAGCAAAGCUCUGCCAAGUAGUGAUGUUACUGCGCCCUUGGCAGCGGUGGCACGACC [Omei KL Theo B SS C v3]  123 nM
12. UGAUUGCCAGUGAUGUUGGCAUAUACUGAAGGAGCGCGUGAAAACGCAGGUAGGUCGCAGUUCCUUGCCAAUUGAUCGAAAGAUC [KL-XArg-A1]  150 nM
13. ACACUUUACGUAGGAUAUGCGACGAGUGAUGUUCGUCAGGCGGCUCUAGAUUAAACAAGCCGCCUAGCAGAAGGACGGGCAGUGU [Teaanso]  160 nM
14. AGGGAUGUUAAAGGAUAUAGAAAGUGAUGUUAGAAAGUGAGUGAUGUUGAUGUUAGUGAUGUUAUGUUAGAAGGUUAACAAAACG [a]  192 nM
15. GCUAUGGUAGGAAGGAGCGCUUAUUCAUUAAUAAGAGUGAUGUUCGAUAAUGAAUAUUUAUAGCAGGUAGGUCGCCUACUAUAGC [Arginine B K4 2]  206 nM
16. UGAUACCAGGCGGCCGCCACUCCCGCAGGUCAAAGACCUGCGAAGCUGGUUCUUCAGUGAUGUUGGAGGACCGGGCCUGGUAUCU [FiskerMod 25 - Jieux - Exclusion - Tryptophan B]  232 nM
17. AUAGGAGUGAUGUUCCUUAGUUUCUCCGAUACCAGUAUGGAAACAUACCCUUGGCAGCGGGAGACCGCUGAUUAGGAAACUAGUC [Theophylline A K4 8]  251 nM
18. GCUAAGGAGUGAUGUUCCAAGUGAUGUUAACGAGGACCGGUACGGCCGCCACUCGAUACGGCCGGACCGUAAGAUAAACUACAGC [Same State - Tryptophan A (Freestyle 6)]  279 nM
19. AGCUCAGAGUGACUCGAUAAGAGUCACAAACGAGGACCGGUACGGCCGCCACUCGAAAUAACGAGAGUGAUGUUCUCGCUGAGCA [#SwitchBubble 1 #StaticStem #K4Late]  285 nM
20. CAUGGGCCAGUGAUGUUGGCGCGCACGGGACGAGGACCGGUACGGCCGCCACUCGCUUUUGCUCUUAUCGGGAUAAGAAAACCGA [Enveerorle]  309 nM
21. AGACGCCAGUCGGCCGCCACUCACAGCAGUGAUGUUGCUGAGAAUCUAGAAGAGUGAUGUUCUUAGAGGACCGGGACUCCAGUCG [Same State Tryptophan B GF 7]  311 nM
22. UAGAGCAUCGCAGGAUAUCCUGCUUAACGUUGGAUUCCAGUGAUGUUGGAAAGCCGGCCUAGGGUAGGAGAAGGGCGGAUUUGAA [Edvean]  322 nM
23. AAAUAAAACUAUGAUACCAGUCAUCACAGAGUGAUGUUUUGUGGCAUUUUAAACUUGGCAGACCCUUGGCAGCAUGAUAUAGGAG [theeternabot_sameState_KL_Theo_B_8]  358 nM
24. UUGUGCAGCAAUCGAGUGAUGUUCGACGAUACCAGCCUCGAUAGAGGCCCUUGGCAGCGUAUCAUCACAUGCCAAGAGCUGCACU [#SwitchBubble 5]  368 nM
25. GGAUUGCGUUCGGCCGCCACUAGACUACAUUCCACGCCCGACCCGUUUUUAAGUGAUGUUUAAACUAGGACCGGGAACCGAUUUC [theeternabot_exclusion_KL_Trp_B_33]  388 nM
26. AAGAGGUAGGCGGCCGCCACUAGUUGUGAACACAUACGAGCCAGUGAUGUUGGUAUGGUGGGCGGUAGGACCGGGCCUACCUGAA [Exclusion - Tryptophan B (Freestyle 18)]  454 nM
27. AGGAGCUGUCGACAAAAGUCGACAUAAACCAAGGAUAUGACGAAAGUCAGAAGGUGGUCAUAAGACCAGUGAUGUUGGUAGCUCC [FmnA 10 #SwitchBubble #K4Late]  488 nM
28. UGAUACCAGACGGCCGCCACUUCCGUAAGUCAAAGACUUGCCAAGGGAAUCGUCCAGUGAUGUUGGAGGACCGGGUCUGGUAUCU [FiskerMod 5 - Jieux - Exclusion - Tryptophan B]  511 nM
29. GUUUGGCGGGCGGCCGCCACUCGGACGAGUCGCAGUGAUGUUGUGGUUUGCCAGUCGUCUUCAUCGAGGACCGGGUUUGUCGGGC [Exclusion Tryptophan B GF 19]  571 nM
30. GGUAGCAUGGCGGCCGCCACUCGGACGACAUAGCACAUGUCGACCAGUGAUGUUGGUUCAAACACGAGGACCGGGCCAUGCUACC  629 nM
